The values that follow come from patent publication US12065471B2, “B*44 restricted peptides for use in immunotherapy against cancers and related methods” (Immatics Biotechnologies GmbH, priority 2018, dated 2024).

The target in the assay is HLA-B*44:05 (Homo sapiens, UniProt P01889, A223V/A65T/A93T/A95T/D201E/D98Y/E176V/E187L/E204Q/E69K/G107R/H137Y/K202T/L105A/L119I/N104T/N87E/Q56L/Q94N/R106L/R155S/R180D/S101N/S121R/S35A/S48T/T118I/V36M/W191S/Y91S). Description: MHC binding assay (UV-ligand exchange, β2m ELISA, peptide exchange yield). Particulars: binding to HLA-B*44:05. The source says:
Candidate peptides for T cell-based therapies according to the present invention were further tested for their MHC binding capacity (affinity). The individual peptide-MHC complexes were produced by UV-ligand exchange, where a UV-sensitive peptide is cleaved upon UV-irradiation and exchanged with the peptide of interest as analyzed. Only peptide candidates that can effectively bind and stabilize the peptide-receptive MHC molecules prevent dissociation of the MHC complexes. To determine the yield of the exchange reaction, an ELISA was performed based on the detection of the light chain (β2m) of stabilized MHC complexes. The assay was performed as generally described in Rodenko et al. (Rodenko et al., 2006)
96 well MAXISorp plates (NUNC) were coated over night with 2 μg/ml streptavidin in PBS at room temperature, washed 4× and blocked for 1 h at 37° C. in 2% BSA containing blocking buffer. Refolded HLA-A*02:01/MLA-001 monomers served as standards, covering the range of 15-500 ng/ml. Peptide-MHC monomers of the UV-exchange reaction were diluted 100-fold in blocking buffer. Samples were incubated for 1h at 37° C., washed four times, incubated with 2 μg/ml HRP conjugated anti-β2m for 1h at 37° C., washed again and detected with TMB solution that is stopped with […]. Absorption was measured at 450 nm.
For orientation: An ELISA detects its analyte on a solid surface through an enzyme-linked reagent.

As for “102 (TELADLDAAW; listed as Homo sapiens) [compound 102]”, the “Peptide exchange (MHC class I binding score, peptide exchange yield)” value (from here on “Peptide exchange”) was “++++ (>75% = ++++)”. The value for “179 (EEHIFSAF; listed as Homo sapiens) [compound 179]” was “++ (>20% = ++)”. “228 (LEYEAPKLY; listed as Homo sapiens) [compound 228]”: the “Peptide exchange” value was “++ (>20% = ++)”.

On to “184 (EEQLLQKVM; listed as Homo sapiens) [compound 184]”, for which the “Peptide exchange” value is “++++ (>75% = ++++)”. In the case of “284 (SQYPHTHTF; listed as Homo sapiens) [compound 284]”, the “Peptide exchange” value is recorded as “+++ (>50 = +++)”. Take “217 (EVEVGDRTDW; listed as Homo sapiens) [compound 217]”: the “Peptide exchange” value is on record as “++ (>20% = ++)”. “58 (KEMDPSRQSY; listed as Homo sapiens) [compound 58]”: the “Peptide exchange” value is “+++ (>50 = +++)”.

Take “339 (NEVKEIKGY; listed as Homo sapiens) [compound 339]”: the “Peptide exchange” value was “+++ (>50 = +++)”. As for “246 (HEHGLFNLY; listed as Homo sapiens) [compound 246]”, the “Peptide exchange” value was “+++ (>50 = +++)”. The value for “247 (KESMLKTTL; listed as Homo sapiens) [compound 247]” was “+++ (>50 = +++)”. In the case of “146 (MEELRMLSF; listed as Homo sapiens) [compound 146]”, the “Peptide exchange” value is given as “+++ (>50 = +++)”.

“235 (SESLPRAPL; listed as Homo sapiens) [compound 235]”: the “Peptide exchange” value is “+++ (>50 = +++)”.

Consider “244 (VESSQAFTW; listed as Homo sapiens) [compound 244]”, for which the “Peptide exchange” value is “+++ (>50 = +++)”. On to “411 (AERDLNVTI; listed as Homo sapiens) [compound 411]”, for which the “Peptide exchange” value is on record as “+++ (>50 = +++)”. To “127 (RYFDENIQKFIW; listed as Homo sapiens) [compound 127]” belongs “+++ (>50 = +++)”; to “418 (GEPRKLLTQDW; listed as Homo sapiens) [compound 418]”, “+++ (>50 = +++)”.

For “128 (TELTEARVQVW; listed as Homo sapiens) [compound 128]”, the “Peptide exchange” value is listed as “+++ (>50 = +++)”.

Take “293 (QEDEQLLLRF; listed as Homo sapiens) [compound 293]”: the “Peptide exchange” value is listed as “+++ (>50 = +++)”.

Take “443 (EEYAGQITL; listed as Homo sapiens) [compound 443]”: the “Peptide exchange” value is on record as “+++ (>50 = +++)”. To “453 (SESKVFQLL; listed as Homo sapiens) [compound 453]” belongs “+++ (>50 = +++)”; to “405 (YEHAFNSIVW; listed as Homo sapiens) [compound 405]”, “++++ (>75% = ++++)”. As for “221 (KEAFGPQAL; listed as Homo sapiens) [compound 221]”, the “Peptide exchange” value is listed as “++++ (>75% = ++++)”. With “423 (KEAINLLKNY; listed as Homo sapiens) [compound 423]”, the “Peptide exchange” value is given as “+++ (>50 = +++)”. To “169 (KEHNSSVPWSS; listed as Homo sapiens) [compound 169]” belongs “++++ (>75% = ++++)”; to “445 (QEVGEITNL; listed as Homo sapiens) [compound 445]”, “+++ (>50 = +++)”; to “354 (TEIMEKTTL; listed as Homo sapiens) [compound 354]”, “+++ (>50 = +++)”. Regarding “322 (REESDWHYL; listed as Homo sapiens) [compound 322]”, the “Peptide exchange” value is given as “+++ (>50 = +++)”.

Consider “333 (SEGTLPYSY; listed as Homo sapiens) [compound 333]”, for which the “Peptide exchange” value is given as “++ (>20% = ++)”. In the case of “351 (EEGRVYVY; listed as Homo sapiens) [compound 351]”, the “Peptide exchange” value was “++ (>20% = ++)”. As for “383 (EEMERDLDMY; listed as Homo sapiens) [compound 383]”, the “Peptide exchange” value is given as “+++ (>50 = +++)”. With “240 (MELQVSSGF; listed as Homo sapiens) [compound 240]”, the “Peptide exchange” value is “+++ (>50 = +++)”. Consider “334 (LEWQNSSSM; listed as Homo sapiens) [compound 334]”, for which the “Peptide exchange” value is listed as “+++ (>50 = +++)”. Regarding “119 (VEVKYEGHW; listed as Homo sapiens) [compound 119]”, the “Peptide exchange” value is given as “++++ (>75% = ++++)”.

Regarding “194 (TEGDVLNYIF; listed as Homo sapiens) [compound 194]”, the “Peptide exchange” value is “+++ (>50 = +++)”. Consider “139 (AESDFSNNML; listed as Homo sapiens) [compound 139]”, for which the “Peptide exchange” value is listed as “+++ (>50 = +++)”. In the case of “302 (EGEDAHLTQY; listed as Homo sapiens) [compound 302]”, the “Peptide exchange” value was “++ (>20% = ++)”. Consider “77 (QETLAESTW; listed as Homo sapiens) [compound 77]”, for which the “Peptide exchange” value is “+++ (>50 = +++)”. On to “236 (LEDQLKPMLEW; listed as Homo sapiens) [compound 236]”, for which the “Peptide exchange” value is given as “+++ (>50 = +++)”. Consider “193 (RELRPLFDRQW; listed as Homo sapiens) [compound 193]”, for which the “Peptide exchange” value is “+++ (>50 = +++)”. “294 (EEWEWIQKL; listed as Homo sapiens) [compound 294]”: the “Peptide exchange” value was “++++ (>75% = ++++)”. For the substance “413 (TELEPGLTY; listed as Homo sapiens) [compound 413]”, the “Peptide exchange” value was “+++ (>50 = +++)”.

On to “409 (QEAKPRATW; listed as Homo sapiens) [compound 409]”, for which the “Peptide exchange” value is reported as “+++ (>50 = +++)”. With “451 (REYEDGPLSL; listed as Homo sapiens) [compound 451]”, the “Peptide exchange” value is “+++ (>50 = +++)”. As to “381 (QELMAFSFAGL; listed as Homo sapiens) [compound 381]”, the “Peptide exchange” value is reported as “++++ (>75% = ++++)”.

As for “387 (GEVQENYKL; listed as Homo sapiens) [compound 387]”, the “Peptide exchange” value is on record as “+++ (>50 = +++)”. As to “331 (KELEATKQYL; listed as Homo sapiens) [compound 331]”, the “Peptide exchange” value is listed as “+++ (>50 = +++)”.

Consider “274 (DEIDKLTGY; listed as Homo sapiens) [compound 274]”, for which the “Peptide exchange” value is reported as “++ (>20% = ++)”.

Turning to “344 (DEIRVFGY; listed as Homo sapiens) [compound 344]”, the “Peptide exchange” value was “++ (>20% = ++)”.

As to “396 (MELLFLDTF; listed as Homo sapiens) [compound 396]”, the “Peptide exchange” value was “++ (>20% = ++)”.

Regarding “116 (AEANPRDLGASW; listed as Homo sapiens) [compound 116]”, the “Peptide exchange” value is “+++ (>50 = +++)”. To “89 (KEFYPVKEF; listed as Homo sapiens) [compound 89]” belongs “++ (>20% = ++)”. For “397 (EECGKAFSVF; listed as Homo sapiens) [compound 397]”, the “Peptide exchange” value was “+++ (>50 = +++)”. The value for “218 (REAEEKEAQL; listed as Homo sapiens) [compound 218]” was “+++ (>50 = +++)”.

Take “147 (RMLSFQQMTW; listed as Homo sapiens) [compound 147]”: the “Peptide exchange” value is “++ (>20% = ++)”. In the case of “347 (LENPHVQSV; listed as Homo sapiens) [compound 347]”, the “Peptide exchange” value is recorded as “+++ (>50 = +++)”. On to “263 (AEQLRGFNA; listed as Homo sapiens) [compound 263]”, for which the “Peptide exchange” value is on record as “+++ (>50 = +++)”. The value for “291 (DEQLLLRF; listed as Homo sapiens) [compound 291]” was “++ (>20% = ++)”.
